Laboratory results: the nanobody polyreactivity screen of Harvey et al. (2022)

Assay: yeast display, Sf9 membrane polyspecificity reagent, FACS + sequencing; frameworks hold sequencing errors
In short: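 In a synthetic yeast display library (Saccharomyces cerevisiae BJ5465), nanobody expression was induced with galactose for 36–48 hours. FACS gates were set low and high (top ~1%) using anti-HA fluorescence for expression and streptavidin fluorescence for binding of the Sf9 membrane reagent. Each polyreactivity label is drawn from the gate of origin.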

Sequence	polyreactivity (PSR sort gate)
QVQLVESGGGLVQAGGSLRLTCAASGRIFSGYAMGWYRQEPGKEREFVASISTSGARTYYADSVKGRFTISRDNAKNTVYLQMNRLKPEDTAVYYCAKVIRWISYRGWYDYWGQGTQVTVSS	high polyreactivity
QVQLVESGGGLVQAGGSLRLTCAASGRIFSRNAMGWYRQAPGKERELVAAISSSGGSTSYADSVKGRFTISRDNAKNTVYLQMNSLKPEDTAVYYCAADSYPAYLGFVGFDYWGQGTQVTVSS	low polyreactivity
QVQLVESGGGLVQAGGSLRLTCAASGRIFSYNAMGWYRQAPGKERELVAAITGGGSTNYADSVKGRFTISRDNAKNTVFLQMNSLKPEDTAVYYCAARSWSYKYWGQGTQVTVSS	high polyreactivity
QVQLVESGGGLVQAGGSLRLTCAASGRPFGKNGMGWYRQAPGKEREWVAAISLSGGSTYYADSVKGRFTISRDYAKNTVYLQMNSLKPEDTAVYYCAAYGIRGPVYQYYFWGQGTQVTVSS	low polyreactivity
QVQLVESGGGLVQAGGSLRLTCAASGRTFAWYAMGWYRQAPGKERELVAAISSGGSTYYADSVKGRFTISRDNAKNTVYLQMDSLKPEDTAVYYCAAEWHYIYAYDYWGQGTQVTVSS	low polyreactivity
QVQLVESGGGLVQAGGSLRLTCAASGRTFDCYAMGLYRQAPGKERELVAAISSRGGSTYYADSVKGRFTISRDNAKNTVYLQMNSLKPEDTSVYYCAKDLGYRGRYNYWGQGTQVTVSS	low polyreactivity
QVQLVESGGGLVQAGGSLRLTCAASGRTFFVYAMGWYRPAPGKERELVASITLSGGSTYYADSVKGRFTISRDNAKNTVYLQMNSLKPEDTAVYYCAKGWSRDNDREREDEYWGQGTQVTVSS	low polyreactivity
QVQLVESGGGLVQAGGSLRLTCAASGRTFPRYAMGWYRQAPGKERELVAAINSGGSTYYADSVKGRFTISRDNAKNSVYLQMNSLKPEDTAVYYCAAEGYTLGDGVYWIGPYDYWGQGTQLTVSS	high polyreactivity
QVQLVESGGGLVQAGGSLRLTCAASGRTFQYNAMVWYRQAPGKERELVAAISSSGGSTYYADSVKGRFTISRDNAKNTVYLQMNSLKPEDTAVYYCNAYSQSWNFYGDGDYWGQGTQVTVSS	low polyreactivity
QVQLVESGGGLVQAGGSLRLTCAASGRTFRIYAMGWYRQAPGKERELVAAIRWSGGTTYYADSVKGRFTISRDNAKNTVYFQMNSLKPEDTAVYYCAADSTNRYDYWGQGTQVTVSS	high polyreactivity
QVQLVESGGGLVQAGGSLRLTCAASGRTFRPYAMGGYRQAPGKERQLVAAITYSGGSTYYADSVKGRFTISRDNAKNTVYLQMNSLKPEDTAVYYCAAEIAATYRPEYDYWGQGTQVTVSS	high polyreactivity
QVQLVESGGGLVQAGGSLRLTCAASGSIFGAKAIGWYIQAPGKERELVAALTWSDTSTYYADSVKGRFTISRDNAKNTVYLQMNSLKPEDTAVYYCAAEYEWVTWGWGYYYWGQGTQVTVSS	high polyreactivity
QVQLVESGGGLVQAGGSLRLTCAASGSIFGYAMGWSRQAPGKERELVAALSFSGVSTYYAYSVKGRFTISRDNAKNTVYLQMNSLKPEDTAVYYCNAYSDGDEDYWGQGTQVTVSS	low polyreactivity
QVQLVESGGGLVQAGGSLRLTCAASGSIFTYYVRGWYRQAPGKEMELVARISRRGGSTYYADSVKGRFTISRDNAKNTVYLQMNSLKPEDTAFYYCNRVFYYDRDNYDYWGQGTQVTVSS	high polyreactivity
QVQLVESGGGLVQAGGSLRLTCAASGSIFYRYVMGWYRQAPGKEMELVAVISGSGGNTYYADSVKGRFTISRDNAKNTVYLQRNSLTPDDTAVYYCAASWYFLPTQTRPYYGYYYWGQATQVTVSS	high polyreactivity
QVQLVESGGGLVQAGGSLRLTCAASGSTFAFYAMGWYRQAPGKERELVAAITLIGGNTYYADSVKGRFTISRDNAKNTVYLQMYSLKPEDTAVYYFAAGGYYVRYPKSWYNYWGQGTQVTVSS	low polyreactivity
QVQLVESGGGLVQAGGSLRLTCAASGSTFGVYAMGWYRQAPRKDRELFAAISSSTGSTYYADSVKGRFTISRHKAKNTVYLQRNSLKPEDTAVYYRAAAGYGKVRGDYWGQGTQVTVSS	low polyreactivity
QVQLVESGGGLVQAGGSLRLTCAASGSTFHSNAMGWYREAPGKERELVAAISQGGGRTYYADSVKGRFTISRDNAKNTVYLQMNSLKPEDTAVYYCNRRTRGLIDGGMDYWGQGTQVTLSS	low polyreactivity
QVQLVESGGGLVQAGGSLRLTCAASGSTFINYAMGWYRQAPGKERELVAAYADSVKGRFTISRDNAKNTVYLQMNSLKPEDTAVYYCNAVTGEWGQGTQVTVSS	low polyreactivity
QVQLVESGGGLVQAGGSLRLTCAASGSTFITYAMGWYRQAPGKERELVAAIRVIGGRTYYADSVKGRFTISRDNAKNTVYLQMNSLKPEDTAVYYCAARPYKSYGYHYSYDYWGQGTQVTVSS	high polyreactivity
QVQLVESGGGLVQAGGSLRLTCAASGSTFQTYVMGLYIQAPGKERELVAAISSGGSTNYADSVKGRFTISRDNAKNNVYLLMKSLKPEDTAVYYCAAVYWAWGKNEYEYWGQGTQVTVSS	low polyreactivity
QVQLVESGGGLVQAGGSLRLTCAASGSTFQVNDMGWYRQAPGKDRELLASISGGSSTNYADSVKGRFTISRDNAKNTVYLQMHSLQPEDTAVYYCAAYYLSGLRVAYDYWGQGPQVTVSS	low polyreactivity

Sequence	polyreactivity (PSR sort gate)
QVQLVESGGGLVQAGGSLRLTCAASGSTFTGYAMGWSIQAPGKERELVAGITGSGGSTYYADSVKGRFTISRDNAKNTVYLQMNSLKPEDTAVYYCNAVHWGGTYWGLDYWGQGTQVTVSS	low polyreactivity
QVQLVESGGGLVQAGGSLRLTCAASGSTFTVNGMGWYRQAPGKERELVASITWSGGSTYYADSVKGRFTISRDNAKITVYLQMNSLKPEDTAVYYCAADEKLYITGYDYWGQGTQVTVSS	low polyreactivity
QVQLVESGGGLVQAGGSLRLTCAASGSTFVPYVMGWYRQAPGKERELVAVITWTGGSTYYADSVKGRFTISRDNAKNTVYLQMNSLKPEDTAVYYCAAEYSPWFYFEQYDYWGQGTQVTVSS	low polyreactivity
QVQLVESGGGLVQAGGSLRLTCAASGSTFVWYGMGWYRQAPGKEREFVAAISTSGGRTYYADSVKGRFTISRDNAKNTVYLQMNSLKPEDTAVYYCATRPYFTYRWYDYWGQGTQVTVSS	high polyreactivity
QVQLVESGGGLVQAGGSLRLTCAASGSTFWSNSMGWYRQAPGKERELVAAISSRGGSTYYADSVKGRFTISRDNAMNTVYLQMNSLKPEDTAVYYCAARSKRLAHDYWGQGTQVTVSS	high polyreactivity
QVQLVESGGGLVQAGGSLRLTCAASGSTFYSYVMGWYRQAPGKERELVAAIDYSGDSTYYADSVKGRFTISRDNAKNTVYLQMNSLKPEDTAVYYCAKDGVWYYSGTGMDYWGHGTQVTVSS	low polyreactivity
QVQLVESGGGLVQAGGSLRLTCAASGSTLWYYAMGWYRQAPGKERELVADITSSGNTNYADSVKGRFTISRDNAKNTVYLQMNSLKPEDTAVYYCAADSANYQWYLSWQKDDYWGQGTQVTVSS	low polyreactivity
QVQLVESGGGLVQAGGSLRLTCAASGTIFVRLDMGWYRQAPGNEREFVATIGSGSSTYYADSVKGSFTISRDNVKNTVYLQMNSLKPEDTAVYYCAVSAAEQSRHYYWDQGTQVTVSS	low polyreactivity
QVQLVESGGGLVQAGGSLRLTCAASGYIFRLNAMGWYRQAPGKEMELVAGISPGGRTNYADSVKGRFTISRDNAKNTVNLQMNSLKPEDTAVYYCAAAWNTAYWVGSDSLGGGYWGLGTQVTVSS	low polyreactivity
QVQLVESGGGLVQAGGSLRLTCAASGYTLSVNAKGWSRQAPGKEMDLVATNDFGGGSTYYADSVKGRFTISRDNAKNTVYLQMNSLKREDTAVYYCATDGGAAWGRYYWDYGYWGQGTQVTVSS	low polyreactivity
QVQLVESGGGLVQAGGSLRLTCDASGGIFAVNVMGWYRQAPWKERELVAAITSTGSTYYADSVKGRFTISRDNAKNTVYLQMNSLTPEDTAVYYCAADYVYYDSYDDTVFGYDYWGQGTQVTVSS	high polyreactivity
QVQLVESGGGLVQAGGSLRLTCDASGSIFSVYAMGWYRQAPGKERELVAAITSSGGITYYADSVKGRFTISRDNSKNTVYLQMNSLKPEDTAVYYCATDRVLHYWVLSMDYWGQGTQVTVSS	low polyreactivity
QVQLVESGGGLVQAGGSLRLTCDASGSIIRLYAMVWYRQAPGKERELVDAISYNSGTTYYADSVKGRFTISRDNAKNTVYLQMNSLKPADTAVYYCAARRYYNYDWRQGTQVTVSS	high polyreactivity
QVQLVESGGGLVQAGGSLRLTCPASGGIFYDYSMVWYRQAPGKERQLVAAITRSGDSTYYADSVKGRFTISRDNAKNTVYLQMNSLKPEDTAVYYCAADIWSSDYEEFYYWVQGTQVTVSS	low polyreactivity
QVQLVESGGGLVQAGGSLRLTSAASGFTFYPYAMGWYRQATGKEMELVAAINSGGSTYYADSVKGRFTISRDNAKNSVYLQMNSLKPEDTAVYYCAAYGKRGAVAFYYWGQGTQVTVSS	high polyreactivity
QVQLVESGGGLVQAGGSLRLTSAASGRIFYNYAIGWYRQAPGKERELVAAISSSGGSTYYADSVKGRFTISRDNAKNTVYVQMNSLKPEDTAVYYCAAYSYGLYYTYDYWGQGTQVTVSS	high polyreactivity
QVQLVESGGGLVQAGGSLRLTSAASGRTFGTNPMGWYRQETGKERELVDAISRRGGSTYYADSVKARFTISRDNAKNTVNLQMNSLKPEDTAVYYCAKTIGLKHEDEYWGQGTQVTVSS	low polyreactivity
QVQLVESGGGLVQAGGSLRLTSAASGSIFQNYAMGWYRQAPGKERQLVAVIDDSGGITYYADSVKGRFTISRDNAKNTVYLEMNSLKPEDTAVYYCARNVNAKKVLGGFDSWGQGTQVTVSS	low polyreactivity
QVQLVESGGGLVQAGGSLRLTSAGSGRIFDYNAMGCYRQAPGKERELVAAITYSGGSTYYADSVKGRFTISRDNAKNTVYLQMNSLKPEDTAVYYCAAPDPYYHYRYPWQSRYDYNYWGQGTQVTVSS	low polyreactivity
QVQLVESGGGLVQAGGSLRLTSAGSGRIFVPYAMGCYRQAPGKERELVATITFGGGRTYYADSVKGRFTISRDNAKTTVFLQMNSLKPEDTAVYYCNAEGWYSVEYDYWGQGTQVTVSS	low polyreactivity
QVQLVESGGGLVQAGGSLRLTWAASGFILGYYAMGWYRQAPGKERELLPGISRSGGSTYYADSVKGRYTISRDNAKNTVYLQMNSLKPEDTSVYYCAKYPPYYTAYGWKYVYWGQGTQVTLSS	high polyreactivity
